Measured values from the nanobody polyreactivity screen of Harvey et al. (2022).

assay: yeast display, Sf9 membrane polyspecificity reagent, FACS + sequencing; frameworks hold sequencing errors
Method in brief: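 In a synthetic yeast display library (Saccharomyces cerevisiae BJ5465), nanobody expression was induced with galactose for 36–48 hours. FACS gates were set low and high (top ~1%) using anti-HA fluorescence for expression and streptavidin fluorescence for binding of the Sf9 membrane reagent. Each polyreactivity label is drawn from the gate of origin.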

| Sequence | polyreactivity (PSR sort gate) |
| --- | --- |
| QVQLVESGGGLVQAGGSLRLSCAASGRIFGYNTMGWYRQAPGKERELVAAINSGGRTYYADSVKGRFPISRDNAKNTVYLQMNSLKPEDTAVYYCATTTYKRFYRAPTSKYDYWGQGTQVTVSS | high polyreactivity |
| QVQLVESGGGLVQAVGSLRLSCAASGSTLYRYALGWYRQAPGKARELDAAISSSGGSTYYADSVKGRFTISRDNAKNTVYLQMNSLKPEDTEVYYCARVARASGVRWYYYWGQGTQVTVSS | high polyreactivity |
| QVQLVESGGGLVQAGGSLRLSCAASGYIFKYYAMGWYRQAPGKERELVAAISRSGGSTYYADSVKGRFTISRDNAKNTVYLQMNSLNPEDTAVYYCAADSYYYQGYRRYNYDYWGQGTQVTVSS | high polyreactivity |
| QVQLVESGGGLVQAGGSLRLSCAASGYIFDGNAMGLYRQAPGKERELVASISSGTSTYYADSVKGRFTISRDNAKNTVYLQMNSLKPEATAVYYCNAGVEFAASLYYSDNYDYWGQGTQVTVSS | low polyreactivity |
| QFQLVESVGGLVQAGGSLRLSCAASGNIFPAYAMGWYRQAPGKERELVAAISKSGGRTYYADSVKGRFTISRDNAKNTVYLQMNSQKPEDTAVYYALLTVLRAVPYSVRYDYCGQGTQVTVSS | high polyreactivity |
| QVQLVESGGGLVQAGGSLRLSCAASGSIYYNAMGWYRQAPGKERELVASISTGDSTDYADSVKGRFTISRDNAKNTVYLQMNSLKPEDTAVYYCAAVTRLGYWDDYWGQGTQVTVSS | low polyreactivity |
| QVQLVESGGGLVQAGGSLRLSCAASGSTFSDNAMGGYRQAAGKERELVAAISWTGGSTYADSVKGRFTISRDNAKNTVYLQMNRLKPEDTAVYYCAAGGDFDGNYWGQGTQVTVSS | low polyreactivity |
| QVQLVESGGALVQAGGSLRLICAASGSIFGYNAMGWYRPSPGKEREFVASIRDRGGSTYYADSVKGRFTISRDNAKNTLYFQMKSLKQEDTAVYYGDAYWWGVSKRQYGYWGQGTQVTVSS | high polyreactivity |
| QVQHVESRGGLVQAGGSLRLSCAASGFTFYYNAMGWYRQAPVKERELVAIRFRGGNTYYADSVKGRFTISRDNAKNTVYLQMNSLKPEDTAVYYCNADDRGSTYVDFVYWGQGTQVTVSS | low polyreactivity |
| QVQLVESGGGLVQAGGSLRLSCAASGLIFGRNAMGWYRQAPGKERELVAAISWSGGSTYYADSVKGRFTISRDNAKNTVYLQMNSLKPEDTAVYYCNRYRYYGSEDDYWGQGTQVTVSS | high polyreactivity |
| QVQLVESGGGLGQAGGSLRLSCAASGRTFFRYAMGWYRQAPGKERELVAAISSRGGSTYYADSVKGRFTISRDNAKNTVYLQMNSLKPEDTAVYYCNAAAFINFILYDYWGQGTQVTVSS | high polyreactivity |
| QVQLVESGGGLVQAGGRLRLSCAASGLTFASYALGWYRQAPGKERELVARISRSGGSTYYADSVKGRFTISRDNAKNTVYLQMNSLIPEDTAVYYCAADYIFRRYPVGGIYDYDYWGQGTQVTLSS | high polyreactivity |
| QVHLVESGGGLVQAGGSLRLSCAASGRTLVPNAMGWYRQAPGKERELVAAISRSGGSTYYADSLKGRFTISRDNAKNTVYLQMNSLKPEDTAVYYCAKDKRIFYRVGSDYWGQGTQVTVSS | low polyreactivity |
| QVQLVESGGGLVQAGGSLRLSCAASGIIFSKNAMGWYRQAPGKERELVATINRSGGSTYADSVKGRFTISRDNAKNTVYLQMNSLKPEDTAVYYCAKRASPFWRGYDSWGQGTQVTVSS | low polyreactivity |
| QVQLVESAGGLVQAGGSLRLSCAASAFTFRWYDMGWYRQAPGKERELVAAIDASDGSTYYSDSVKGSFTISRDNPKNTVYLPMNSLKPEDTAVYYCATRLRGGGKGYYYWGQGTQVTVSS | high polyreactivity |
| QVQLEESGGGLVQAGGSLRLSCAASGYTFATYAMGWSRQAPGKERELVAAISQGGDRTNYADSVKGRFTISRDNAKITVYLQMNSLKPEDTSVYYCAVRYASRQSRFYYWGQGTQVTVSS | high polyreactivity |
| QVQLVESGGGLVQAGGSLRLSCAASGSTLPGNVMGWYRQAPGKERELVAAISKRGASTYYADSVKGRFTISRDNAKYTVYLLMNSLKPEDTAVYYCATRTRGSVFRFDYWGQGTQVTVSS | high polyreactivity |
| QVQLVESGGGLVQAGGSLRLSCAASGSIFRAYAMGWYRQAPGKERELVAAITNGGGTTYYADSVKGRFTISRDNAKNTVYLQMNSLKPEDTAVYYCAADGAYSYASYDYWGQGTQVTVSS | low polyreactivity |
| QVQLVESGGGLVQAGGSLRLSCAASGRIFYLYAMGWYRQAPGKERELVAAISWGGGSTYYADSVKGRFTISRDNAKNTVYLQMNSLKPEDTAVYYCAAAVTTWVEYDYWGQGTQVTVSS | low polyreactivity |
| QVQLVESGGGLVQAGGSLRLSCAASGSIFPVYAMGWYRQAHGKVREFVASIRWRGGSTSYADSVKGRFTISRDNAKNTVYLQMNSLKPEETAVYYCNAVYYSWSQSARFDYWGQGTQVTVSS | low polyreactivity |
| QVQLVESGGGLVQAGGSLRLSCAASGFTFDRYANGWYRQAPWKAWELVAAITRRGGSTYYADSVKGRFTISRDNAKKTVYLQMNSLKPEDTAVYYCNARTYVTVDYDYCGQGTQVTVSS | high polyreactivity |
| QFQLVESGGGLVQAGGSLRLSCASSGRTFGYNTMGWYRQAPGKERELVAAINYSGGSTYYADSVKGRFTISRDNAKNTVYLQMNSLKPEDTAVYYCNAKPRWYVPYDYWGQGTQVTVSS | high polyreactivity |

| Sequence | polyreactivity (PSR sort gate) |
| --- | --- |
| QLQLVESGGGLVQAGGSLRLSCAYYGFIFYWNAMGWYRHAPGKESQFVATITWSGGSTYYADSVTGRFTISRDNAKNTVYLQMNSLKPEDTAVYSCAVSYLSTLGRSRSDYWGQGTQVTVSS | low polyreactivity |
| QVQLVESGGGLVQAGGSLRLSCAASGFIFTLYAMGWYRQAPGKESELVASISSGGSTNYADSVKGRFTISRDNAKNTVYFQMNSLKPEDTAVYYCAAYYYFKSDRFSGRYGRYYWGQGTQVTVSS | high polyreactivity |
| QVHLVESGGGLVQAGRSLRLSCAASGSIFYVYAMGWYRQAPGKETQLVATISTGGSTYYADSVKGRFTISRDNAKNTVYLQMNSLKPEDTAVYYCNAQFTPRYWGGYDSWGQGNQVTVSS | low polyreactivity |
| QVQLVESGGGLVQAGGSLRLSCAASGRIFYNYAMGWYRQAPGKERELVAAISGSGGSTYYADSVKGRFTISRDNAKNTVYLQMNSLKPEDTAVYYCAADSYVSPEVRFDYWGQGTQVTVSS | low polyreactivity |
| QVQLVESGGGLVQAGGSLRLSCAASGFIFSYYAMGWYRQAPGKERELVADISRGGSTYYADSVKGRFTISRDNAKNTVYLQMNSLKPEDTAVYYCNAYIRYVVNGYRVYSFDYWGQGTQVTVSS | high polyreactivity |
| QVQLVESGGGLVQAGGSLRLSCAASGSIFRSYAMGWYRQAPGKERELVAAISSGGRTKYADSVKGRFTISRDNAKNTVYLQMNSLKPEDTAVYYCAARVNVKYYGFYYWGQGTQVTVSS | high polyreactivity |
| QVQLVESGRRLVQAGGSLRLTCAASGRTFVTNAMGWYRQAPGKERELVAAISSKGGSTYYADSVKGRFTISRDNAKNTVYLQMNSLKPEDTAVYDCNAEGQPLYVSWHDHRYIYGFDYWGQGTQVTVSS | low polyreactivity |
| QVQLEESGGGLVQAGGSLRLSCAGSGRIFAYYPMGWYRQAPGKERELVAAISRSGVSTYYADSVKGRFTISRDNAKNTVYLQMNSLKPEDTAVYYCAATYWRRGGYRMEYWGQGTQVTVSS | low polyreactivity |
| QVQLVESGGGLVQAGGSLRLSCAASGRIFGYYAMGWYRQAPGKERELVADITESGTSTYYADSVKGRFTISRDNAKNTVYLQMNSLKPEDTAVYYCAAGYWWRYALYGYWGQGTQVTVSS | low polyreactivity |
| QVQLVESGGVLVQAGGSLRLICAASGRIFGYYAMGWYRQAPGKERELVAAISNGGSTHYADSVKGRFTISRDNAKNTVYLQMNSLKPEDTAVYFCAAKASRVDWGYGYWGQATQVTVSS | high polyreactivity |
| QVQLVESGGGLVQAGGSLRLSCAASGRIFSWYTMGWYRQAPGKERELVASITTGGRTYYADSLKGRFTNSRDNAKNTVYLQMNSLKPEDTAVYSCIVLSTLFGYYRWGDYWGQGTQVTVSS | high polyreactivity |
| QVQLVESGGGLVQAGGSLRLSCADSGITLVYDGMGWDIQAPGKERELVAAISWTGGSTFYADSVKGLFTISLDNAKKTVYLQMNSLKPEDTAVYYCAADRGYFYSRIQVDSDYWGQGTQVTVSS | low polyreactivity |
| QVQLVESGGGIVQAGGSLRLSCAASGFIFSNYAMGWYRQAPGKERELVAAISSGGTITKYADSVKGRFTISRDNAKNTVYLQMNSLKTEDTAVYYCNAVVRVRFRKNDYWGQGTQVTVSS | high polyreactivity |
| QVQLVESGGGLVQAGRSLRLTCAASGFTFADNTMGWYRQAPGKDRELVAAINDAGGTNYADSVKGRFTISRDNEKNTVYLQMNSLKAEDTAVYYCAADGRIYLTYHEMEYWGQGTQVTVSS | low polyreactivity |
| QVQLVESGGGLDQAGGSLRLSCAASGRNYGLYAMGWYIQAPWKERELVAAITRTASTNYADSVNGRFTISRDNAKNTVYLQMNSLKPEDTAVYYCAAESWYPSDLWYTYEYWGQGTQVTVSS | low polyreactivity |
| QVQLVESGGGLVQAGGSLRLSCAASGFIFTSYAMGWYRQAPGKERELVAAISKRGGSTYYADSVKGRFTISRDNAKNTVYLQMNSLKPEDTAVYYCATRYPQPYSPGYTYDYWGLGTQVTVSS | high polyreactivity |
| QVQLHESGGGLVQAGRGLRLSCPASGSITSTGFMGSYRQPPGKEREPVAAIAPGTTTYYADSVKGRFTISRDNAKYTEYLQMNSLRPEDTAVYYCAVFTDNRVAFLYWGQGTQVTVSS | low polyreactivity |
| QVQLVDSGGGLVQAGGSLRLSCAASGSIFVHYAMGWSRQAPGKEWELVAAITSSGGRTYYADSVKGRFTISRDNAKKTVYLQMNSLKPEDTEVYYCAAKQGRYNIYSNYDYWGQGTQVTVSS | high polyreactivity |
| QVQLVESGGGLVQSGGSLPLSCAASGRIFSRNAMGWYRQAPGKERELVAAITSGGSTYYADSVKGRFTISRDNAKNTVYLQMNSLKPEDTAVSTVKILRYDYWGQGTQVTVSS | high polyreactivity |
| QVQLVESGGGLVQAGGSLRLSCAASGFTFRYNAMGWYRQAPGKKGSWVAAISRTGGSTYYADSVKGRFTISRDNAKNTVYLQMNSLKPEDTAVYYCARAPEGTGGKYGYWGQGTQVTVSS | high polyreactivity |
| QVQLVESAGGLVQAGGSLRLSCAASGNTFANYAMGWDRQAPGKERELVAAITRGGSTFYADSVKGRFTISRDNAKNTVYLQMNSLKPEDSAVYYCAKGYGTNTRYYHRYRYDYWGQGTQVTVSS | high polyreactivity |
